In publication PMC2770428 (2010):
Several values for one entry are separate records, joined by “and”; a condition that tells them apart may be missing. Equal values may be shown once.

T1: C4b (on zymosan, average) C4b (Homo sapiens, UniProt P0C0L5)
T1 chain 1: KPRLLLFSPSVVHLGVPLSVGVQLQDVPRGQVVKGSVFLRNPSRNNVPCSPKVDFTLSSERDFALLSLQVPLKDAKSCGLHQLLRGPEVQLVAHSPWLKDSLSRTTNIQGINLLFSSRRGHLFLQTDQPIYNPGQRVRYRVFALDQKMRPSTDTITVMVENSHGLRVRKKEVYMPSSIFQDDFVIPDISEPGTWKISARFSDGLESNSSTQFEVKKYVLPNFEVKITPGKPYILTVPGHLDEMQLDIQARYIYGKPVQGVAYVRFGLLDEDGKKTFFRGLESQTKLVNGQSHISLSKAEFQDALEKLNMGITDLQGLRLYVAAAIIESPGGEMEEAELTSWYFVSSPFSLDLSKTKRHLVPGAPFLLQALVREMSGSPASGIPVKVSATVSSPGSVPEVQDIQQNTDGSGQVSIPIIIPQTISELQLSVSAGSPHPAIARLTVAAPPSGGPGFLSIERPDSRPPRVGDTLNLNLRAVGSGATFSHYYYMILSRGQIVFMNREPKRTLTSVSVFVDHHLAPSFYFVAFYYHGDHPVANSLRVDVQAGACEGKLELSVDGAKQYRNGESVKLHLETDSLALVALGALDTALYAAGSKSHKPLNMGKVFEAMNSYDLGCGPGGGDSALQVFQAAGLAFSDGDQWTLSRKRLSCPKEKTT
T1 chain 2: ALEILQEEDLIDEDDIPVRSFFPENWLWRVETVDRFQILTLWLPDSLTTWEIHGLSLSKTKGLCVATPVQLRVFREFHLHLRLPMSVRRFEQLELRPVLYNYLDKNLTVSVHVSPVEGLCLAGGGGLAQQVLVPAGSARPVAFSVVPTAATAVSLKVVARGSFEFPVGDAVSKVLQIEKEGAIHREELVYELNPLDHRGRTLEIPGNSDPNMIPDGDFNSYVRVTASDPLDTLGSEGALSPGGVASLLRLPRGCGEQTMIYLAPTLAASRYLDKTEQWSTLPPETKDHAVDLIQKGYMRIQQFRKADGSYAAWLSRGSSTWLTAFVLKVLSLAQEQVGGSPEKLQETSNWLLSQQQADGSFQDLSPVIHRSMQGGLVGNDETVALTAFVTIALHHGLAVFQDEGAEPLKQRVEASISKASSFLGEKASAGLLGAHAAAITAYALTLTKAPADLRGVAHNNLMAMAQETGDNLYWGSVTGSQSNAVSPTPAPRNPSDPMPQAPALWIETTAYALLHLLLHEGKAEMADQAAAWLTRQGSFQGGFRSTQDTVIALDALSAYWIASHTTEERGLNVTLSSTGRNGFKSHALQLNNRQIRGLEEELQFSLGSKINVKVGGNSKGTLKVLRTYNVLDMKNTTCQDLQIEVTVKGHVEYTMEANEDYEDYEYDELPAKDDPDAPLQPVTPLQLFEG
T1 chain 3: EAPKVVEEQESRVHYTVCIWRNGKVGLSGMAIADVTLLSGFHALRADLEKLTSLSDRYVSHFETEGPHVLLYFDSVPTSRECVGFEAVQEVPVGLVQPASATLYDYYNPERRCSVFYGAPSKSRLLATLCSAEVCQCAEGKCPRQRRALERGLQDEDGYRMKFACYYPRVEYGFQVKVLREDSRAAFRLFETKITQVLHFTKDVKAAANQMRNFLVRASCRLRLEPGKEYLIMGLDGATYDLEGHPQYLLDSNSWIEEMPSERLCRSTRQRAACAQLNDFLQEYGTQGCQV


Experiments:
[1] = target: C4b (surface-bound) (Homo sapiens) (UniProt P0C0L4); settings: cited from earlier work
[2] = target: C4b (soluble) (Homo sapiens) (UniProt P0C0L4); settings: cited from earlier work
[3] = target: C3bC4b complex (on zymosan, average) C3b+C4b (Homo sapiens, UniProt P01024); assay: 125I-C4BP equilibrium binding
C3bC4b complex (on zymosan, average) C3b+C4b, sequence (P01024 23-1663, one chain of several): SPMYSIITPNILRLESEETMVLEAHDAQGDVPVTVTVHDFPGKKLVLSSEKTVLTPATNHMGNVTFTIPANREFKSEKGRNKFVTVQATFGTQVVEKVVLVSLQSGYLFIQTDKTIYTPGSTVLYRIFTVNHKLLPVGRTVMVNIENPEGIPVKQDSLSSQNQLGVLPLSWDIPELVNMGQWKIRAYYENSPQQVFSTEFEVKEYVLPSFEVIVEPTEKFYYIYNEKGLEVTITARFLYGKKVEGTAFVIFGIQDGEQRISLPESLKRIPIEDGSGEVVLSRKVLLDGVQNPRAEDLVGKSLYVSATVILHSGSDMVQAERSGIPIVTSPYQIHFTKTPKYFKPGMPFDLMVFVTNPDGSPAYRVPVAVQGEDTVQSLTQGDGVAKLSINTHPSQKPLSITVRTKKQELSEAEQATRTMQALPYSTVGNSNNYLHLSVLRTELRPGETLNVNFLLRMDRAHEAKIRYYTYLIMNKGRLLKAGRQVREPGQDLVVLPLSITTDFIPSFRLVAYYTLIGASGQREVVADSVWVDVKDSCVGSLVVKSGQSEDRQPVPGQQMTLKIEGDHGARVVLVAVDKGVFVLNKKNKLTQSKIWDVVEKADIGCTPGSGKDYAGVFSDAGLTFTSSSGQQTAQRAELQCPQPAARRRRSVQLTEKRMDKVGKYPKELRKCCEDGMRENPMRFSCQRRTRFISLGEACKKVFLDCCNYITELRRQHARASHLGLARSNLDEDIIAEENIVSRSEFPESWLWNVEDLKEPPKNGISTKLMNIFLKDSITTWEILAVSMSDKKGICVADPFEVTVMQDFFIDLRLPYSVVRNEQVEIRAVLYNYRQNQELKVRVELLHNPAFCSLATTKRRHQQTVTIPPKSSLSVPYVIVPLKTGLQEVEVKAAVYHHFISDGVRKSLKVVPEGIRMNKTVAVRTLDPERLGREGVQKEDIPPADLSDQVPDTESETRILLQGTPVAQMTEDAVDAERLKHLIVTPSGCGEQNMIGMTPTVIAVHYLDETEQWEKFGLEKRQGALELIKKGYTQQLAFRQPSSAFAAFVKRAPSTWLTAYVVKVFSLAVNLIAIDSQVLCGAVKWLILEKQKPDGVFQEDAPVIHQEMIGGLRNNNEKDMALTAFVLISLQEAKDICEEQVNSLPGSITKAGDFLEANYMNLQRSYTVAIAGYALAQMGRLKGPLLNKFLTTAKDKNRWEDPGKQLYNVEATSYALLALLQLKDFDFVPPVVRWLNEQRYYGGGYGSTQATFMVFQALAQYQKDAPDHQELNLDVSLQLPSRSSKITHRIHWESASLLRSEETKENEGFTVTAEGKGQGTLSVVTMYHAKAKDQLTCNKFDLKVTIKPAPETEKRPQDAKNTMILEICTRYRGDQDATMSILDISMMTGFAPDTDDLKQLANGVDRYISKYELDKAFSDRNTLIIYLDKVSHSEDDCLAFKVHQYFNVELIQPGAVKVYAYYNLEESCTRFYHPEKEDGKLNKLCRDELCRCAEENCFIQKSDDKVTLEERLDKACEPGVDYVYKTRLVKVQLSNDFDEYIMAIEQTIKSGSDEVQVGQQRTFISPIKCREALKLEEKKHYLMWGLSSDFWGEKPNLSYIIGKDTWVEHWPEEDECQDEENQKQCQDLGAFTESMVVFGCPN

[4] = target: C3bC4b complex (on EMan, average) C3b+C4b (Homo sapiens, UniProt P01024); assay: 125I-C4BP equilibrium binding
C3bC4b complex (on EMan, average) C3b+C4b, sequence (P01024 23-1663, one chain of several): as above

[5] = target: T1, C4b (on zymosan, average) C4b; assay: 125I-C4BP equilibrium binding
[6] = target: C3bC4b complex (on zymosan, 54,000 C4b/Zym) C3b+C4b (Homo sapiens, UniProt P01024); assay: 125I-C4BP equilibrium binding
C3bC4b complex (on zymosan, 54,000 C4b/Zym) C3b+C4b, sequence (P01024 23-1663, one chain of several): as above

Row | Kd [3] [nM] | Kd [4] [nM] | Kd [5] [nM] | Kd [6] [nM] | Molecule | Kd [1] | Kd [2] [nM]
1 |  |  |  |  | C4BP (from UniProt P04003) | 5 nM and 2.2 nM | 80
2 | 0.9 | 2.1 | 0.95 | 0.62 | C4b-binding protein (C4BP) (protein) chain 1: NCGPPPTLSFAAPMDITLTETRFKTGTTLKYTCLPGYVRSHSTQTLTCNSDGEWVYNTFCIYKRCRHPGELRNGQVEIKTDLSFGSQIEFSCSEGFFLIGSTTSRCEVQDRGVGWSHPLPQCEIVKCKPPPDIRNGRHSGEENFYAYGFSVTYSCDPRFSLLGHASISCTVENETIGVWRPSPPTCEKITCRKPDVSHGEMVSGFGPIYNYKDTIVFKCQKGFVLRGSSVIHCDADSKWNPSPPACEPNSCINLPDIPHASWETYPRPTKEDVYVVGTVLRYRCHPGYKPTTDEPTTVICQKNLRWTPYQGCEALCCPEPKLNNGEITQHRKSRPANHCVYFYGDEISFSCHETSRFSAICQGDGTWSPRTPSCGDICNFPPKIAHGHYKQSSSYSFFKEEIIYECDKGYILVGQAKLSCSYSHWSAPAPQCKALCRKPELVNGRLSVDKDQYVEPENVTIQCDSGYGVVGPQSITCSGNRTWYPEVPKCEWETPEGCEQVLTGKRLMQCLPNPEDVKMALEVYKLSLEIEQLELQRDSARQSTLDKEL chain 2: SDAEHCPELPPVDNSIFVAKEVEGQILGTYVCIKGYHLVGKKTLFCNASKEWDNTTTECRLGHCPDPVLVNGEFSSSGPVNVSDKITFMCNDHYILKGSNRSQCLEDHTWAPPFPICKSRDCDPPGNPVHGYFEGNNFTLGSTISYYCEDRYYLVGVQEQQCVDGEWSSALPVCKLIQEAPKPECEKALLAFQESKNLCEAMENFMQQLKESGMTMEELKYSLELKKAELKAKLL |  | 
